This note sets out measurements from paper PMC3017675 (Journal of molecular biology, 2010).

Usually stoichiometry N stands for the number of molecules, sites or subunits per partner or assembly.

The target of test [1] is full-length Mycobacterium tuberculosis GroEL1 (M. tuberculosis H37Rv) (UniProt P9WPE9). The test can be described thus: SEC.
Test [2] has as its target full-length M. tuberculosis GroEL2 (M. tuberculosis, UniProt P9WPE7 1-540). As to the kind of experiment: peptide or protein array.

Chain of full-length M. tuberculosis GroEL2 (P9WPE7 whole entry): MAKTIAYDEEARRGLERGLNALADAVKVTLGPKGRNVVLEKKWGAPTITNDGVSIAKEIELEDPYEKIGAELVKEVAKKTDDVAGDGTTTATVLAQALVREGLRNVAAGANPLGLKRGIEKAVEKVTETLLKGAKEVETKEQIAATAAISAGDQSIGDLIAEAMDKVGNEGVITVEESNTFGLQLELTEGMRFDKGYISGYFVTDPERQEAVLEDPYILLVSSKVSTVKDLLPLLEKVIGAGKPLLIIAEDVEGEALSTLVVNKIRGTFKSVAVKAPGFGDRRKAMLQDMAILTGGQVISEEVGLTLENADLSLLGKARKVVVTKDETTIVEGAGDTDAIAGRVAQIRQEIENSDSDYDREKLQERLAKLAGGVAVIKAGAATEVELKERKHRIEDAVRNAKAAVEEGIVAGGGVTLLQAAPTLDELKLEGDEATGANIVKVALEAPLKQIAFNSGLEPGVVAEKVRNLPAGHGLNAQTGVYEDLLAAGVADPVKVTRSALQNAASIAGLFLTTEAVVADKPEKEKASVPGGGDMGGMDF

Take “full-length Mycobacterium tuberculosis GroEL1 (from UniProt P9WPE9 1-539) (natural protein)”: in test [1], the stoichiometry N worked out at 2.

As for AVGALESVLTVLTLRDGVIP [KasA peptides Group I (spots G20-G24)], the binding result in test [2] is given as “binds”. Same read-out and setting: the entry for GGFPSVVVTAVTATTSIS [KasA peptides Group A (spots A05-A08)] is “binds”. On the same count and under the same terms, the entry for RGAKPLARLLGAGITSDA [KasA peptides Group G (spots F01-F04)] is “binds”; for APAADGVRAGRAMTRSLELAGL [KasA peptides Group H (spots F12-F17)] it is “binds”.
